The record followed here is the nanobody polyreactivity screen of Harvey et al. (2022).

This series in a line: yeast display, Sf9 membrane polyspecificity reagent, FACS + sequencing; frameworks hold sequencing errors. The gist of the method: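 Genes from sorted yeast were amplified by colony PCR, read by MiSeq 2 × 250 sequencing and filtered on CDR length. These cells carried a synthetic nanobody library in Saccharomyces cerevisiae BJ5465 and were sorted by FACS into low and high (top ~1%) gates on anti-HA and streptavidin fluorescence. Polyreactivity is labelled according to the gate of origin.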
Consider “QVQLVESGGGLVQAGGSLRLSCAASGSTFNTYDMGWYRQAPGKERELVAAISFSDASTYYADSVKGRFTISRDNAKYTVYLQMNSLKPEDTAVYYCAADTRRITTVTTGEYGYWGQGTQVTVSS”, for which the “polyreactivity (PSR sort gate)” value is “low polyreactivity”.
The same measure for “QVQLVESGGGLVQAGGSLRLSCAASGSTFNVNAMGWYRQAPGKETEFVAAITYRGGRTYYADSVKGRFTISRDNEKNTVYLQMNSLKPEDTAVYYCAADGYRKRGFDYWGQGTQVTVSS”: “high polyreactivity”; for “QVQLVESGGGLVQAGGSLRLSCAASGSTFNYNAMGWYRQAPGKERELVAAITGTGGDTYYADSVKGRITISRDNAKNTVYLQMNILKPEDTAVYYCDAEEDYWGQGTQVTLSS”: “low polyreactivity”.
Turning to “QVQLVESGGGLVQAGGSLRLSCAASGSTFNYNAMGWYRQAPGKERELVATITTSGGSTYYADSVKGRFTISRDNAKNTVYLQMNSLKPEDTAVYYCAARYPWYRTIDRYDYWGQGTQVTVSS”, the “polyreactivity (PSR sort gate)” value is “low polyreactivity”.
In the case of “QVQLVESGGGLVQAGGSLRLSCAASGSTFNYYAMGWYRPAPGKERELVAAISWSGGSTYYADSVKGRFTISRDNAKNTVYLQMNSLKPEDTAVYYCAAYPARPWARGDRRRIRFWGQGTQVTVSS” it was “high polyreactivity”.
Regarding “QVQLVESGGGLVQAGGSLRLSCAASGSTFNYYAMGWYRQAPGKERELVAAIDWSGGSTYYADSVKGRFTISRDNAKNTVYLQMNSLKPEDTAVYYCAARTYDYSYRSYDYWGQGTQVTVSS”, the “polyreactivity (PSR sort gate)” value is “low polyreactivity”.
Consider “QVQLVESGGGLVQAGGSLRLSCAASGSTFNYYTMGWYRQAPGKERELVAAISGRGSITYYADSVKGRFTISRDNAKNTVYLQMNSLKPEDTAVYYCNARYGRWQGSSGEHDYWGQGTQVTVSS”, for which the “polyreactivity (PSR sort gate)” value is reported as “high polyreactivity”.
In the case of “QVQLVESGGGLVQAGGSLRLSCAASGSTFPAYAMGWYRQAPGKERELVAVINLSGSTYYADSVKGRFTISRDNAKNTVYLQMNSLKPEDTAVYYCNARPYDYYRYGYWGQGTQVTVSS” it was “low polyreactivity”; in that of “QVQLVESGGGLVQAGGSLRLSCAASGSTFPDYAMGWYRQAPGKERELVAAISYRGGSTNYADSVKGRFTISRDNAKNTVYLQMNSLKPEDTAVYYCATDDYYPQPFYYEYDYWGQGSQVTVSS”, “low polyreactivity”.
As to “QVQLVESGGGLVQAGGSLRLSCAASGSTFPGNAMGWYRQAPGKERELVASISGGGDSTYYADSVKGRFTISRDNAKNTVYLQMNSLKPEDTAVYYCAADYRQEPGYTGYYYWGQGTQLTVSS”, the “polyreactivity (PSR sort gate)” value was “low polyreactivity”.
The same measure for “QVQLVESGGGLVQAGGSLRLSCAASGSTFPGNSMGWYRQAPGKEMELVAAIDTSGGSTYYADSVKWRFTISRDNAKNTVYLQINSLKPEDTAVYYCAADYLIEMDYWGQGTQVTVSS”: “low polyreactivity”.
For the sequence “QVQLVESGGGLVQAGGSLRLSCAASGSTFPGYAMGWYRQAPGKERELVAAINWRGDSTYYADSVKGRFTISRDNAKNTVYLQMNSLKPEDTAVYYCAAKYNHVTDEYDYWGQGTQVTVSS”, the “polyreactivity (PSR sort gate)” value is listed as “high polyreactivity”.
The same measure for “QVQLVESGGGLVQAGGSLRLSCAASGSTFPGYAMGWYRQAPGKERELVATISSGGSTNYADSVKGRFTISRDNAKNTVYLQMNSLKPEDTAVYYCAKLRSAKFRYGYWGQGTQVTVSS”: “low polyreactivity”.
The same measure for “QVQLVESGGGLVQAGGSLRLSCAASGSTFPGYDMGWYRQAPGKERELVAAISWRDGRTFYADSVKGRFTISRDNAKNTVYLQMNSLKPEDSAVYYCAAAQRTAYLTYSYKYNYWGQCTQVTVSS”: “high polyreactivity”; for “QVQLVESGGGLVQAGGSLRLSCAASGSTFPIYAMGWYRQAPGKERELVASIRSGGSTYYADSVKGRFTMSRDNAKNTVYLQMNSLKPEDTAVYYCARRDYGVLNKGLGQEGDYWGQGTQVTVSS”: “low polyreactivity”.
The same measure for “QVQLVESGGGLVQAGGSLRLSCAASGSTFPKYAMGWYRQAPGKERELVASISVTTGSTYYADSVKGRFTISRDNAKNTVYLQMNSVKPEDTAVYYCAARRGWGDDYWGQGTQVTVSS”: “high polyreactivity”; for “QVQLVESGGGLVQAGGSLRLSCAASGSTFPKYAMGWYRQAPGKERELVATISSGTRTYYADSVKGRFTISRDNAKNTVYLQMNSLKPEDTAVYYCAARYQPRKGAHYGYWGQGTQVTVSS”: “high polyreactivity”; for “QVQLVESGGGLVQAGGSLRLSCAASGSTFPLNVMGWYRQAPGKERELVAAISSAGSTNYADSVKGRFTISRDNAKNTVYLQMNSLKPEDTAVYYCNADVRSTWYWLQYTPIYDYWGQGTQVTVSS”: “low polyreactivity”.
As to “QVQLVESGGGLVQAGGSLRLSCAASGSTFPLYAMGWYRQAPGKERELVAAISSSGGSTYYADSVKGRFTISRDNAKNTVYLQMNNLKPEDTAVYYCAAAPTSYSGYGYWGQGTQVTVSS”, the “polyreactivity (PSR sort gate)” value is “low polyreactivity”.
On to “QVQLVESGGGLVQAGGSLRLSCAASGSTFPNYPMGWNRQSPGKERELVAAITRSGRSTYYADSVKGRFTISRDNAKNTVYLQMNSLKPEDTGVYYCNAQHLARMDYWGQGTQVTVSS”, for which the “polyreactivity (PSR sort gate)” value is reported as “high polyreactivity”.
The same measure for “QVQLVESGGGLVQAGGSLRLSCAASGSTFPPNAMGWYRQSPGKERELVAVISYSDGSTYYADSVKGRFTISRDNAKNTVYLQMNSLKPEDTAVYYCAAYCGYGGVSMYYWGQGTQVTVSS”: “low polyreactivity”.
The same measure for “QVQLVESGGGLVQAGGSLRLSCAASGSTFPQNAMGWYRQAPGKERELVAAISRSGGRTYYADSVKGRFTISRDNAKNTVYLQMNILKPEDTAVYYCNAGFYQKYDYWGQGTQVTVSS”: “high polyreactivity”.
The same measure for “QVQLVESGGGLVQAGGSLRLSCAASGSTFPQYAMGRYRQAPGKERELVAAISRSGGSTYYADSVKGRFTISRDNAKNTVYLQMNSLKPEDTAVYYCNVKSGFWFYPTMDYWGQGTQVTVSS”: “high polyreactivity”; for “QVQLVESGGGLVQAGGSLRLSCAASGSTFPRNAMGWYRQAAGKERELVAAISGRGVRTYYADSVKGRFTISRDNAKNTVYLQMNSLKPEDTAVHYCAAERQPYRTSSYNYWGQGTQVTVSS”: “high polyreactivity”; for “QVQLVESGGGLVQAGGSLRLSCAASGSTFPRNAMGWYRQAPGKDRELVAAISGSGGTTYYADSVKGRFTISRDNAKNTVYLQMNSLKPEDTAVYYCAARTSWAYPGGNYWGHGTQVTVSS”: “low polyreactivity”.
In the case of “QVQLVESGGGLVQAGGSLRLSCAASGSTFPRNAMGWYRQAPGKERELVAAISGRGVRTYYADSVKGRFTISRDNAKNTVHLQMNSLKPEDTAVYYCAASRGKGVGLAYDYWGQGTQVTVSS”, the “polyreactivity (PSR sort gate)” value was “high polyreactivity”.
The same measure for “QVQLVESGGGLVQAGGSLRLSCAASGSTFPRNAMGWYRQAPGKERELVAAISRSGGSTYYADSVKGRFTISRDNAKNTVYLQINSLKPEDTAVYYCAASYYGLPRYRYEYWGQGTQVTVSS”: “high polyreactivity”.
The same measure for “QVQLVESGGGLVQAGGSLRLSCAASGSTFPRNAMGWYRQAPGKERELVAAISYSGGRTYYADSVKGRLRISRDNAKNTVYLQMNSLKPDDTAVYYCAASPGVGDSRYYYWGQGTQVTVSS”: “high polyreactivity”; for “QVQLVESGGGLVQAGGSLRLSCAASGSTFPRNAMGWYRQAPGKERELVAGISRGSSTNYADSVKGRFTISRDNAKNTVYLQMNSLKPEDTAVYYCAAALSVTARLDYWGQGTQVTVSS”: “low polyreactivity”; for “QVQLVESGGGLVQAGGSLRLSCAASGSTFPRYAMGWYRQAPGKARELVAAINSSGSSTYYADSVKGRFTISRDNAKNTVYLQMNSLKPEDTAVYYCAAKARYRDYYYWGQGTQVTVSS”: “high polyreactivity”.
For “QVQLVESGGGLVQAGGSLRLSCAASGSTFPRYAMGWYRQAPGKERELVAAISRSGTSTYYADSVKGRFTISRDNAKNTVYLQMNSLKPEDTAVYYCAAEYHPRVLYPNWYDYWGQGTQVTVSS”, the “polyreactivity (PSR sort gate)” value is given as “low polyreactivity”.
In the case of “QVQLVESGGGLVQAGGSLRLSCAASGSTFPRYAMGWYRQAPGKERELVAAISRSGTTTYYADSVKGRFTISRDNAKNTVYLQMNSLKPEDTAVYYCAKRHYARYDYWGQGTQVTVSS” it was “high polyreactivity”.
The same measure for “QVQLVESGGGLVQAGGSLRLSCAASGSTFPRYAMGWYRQAPGKERELVAAITYSGGRTYYADSVKGRFTISRDNAKNTVYLQMNSLKPEDTAVYYCAARYGPYRFNPMGYWGQGTQVTVSS”: “high polyreactivity”.
The same measure for “QVQLVESGGGLVQAGGSLRLSCAASGSTFPRYAMGWYRQAPGKERELVASITSDGGSTYYADSVKGRFTISRDNAKNTVYLQMNSLKPEDTAVYYCNKVPYRGYRRYGYWGQGTQVTVSS”: “high polyreactivity”.
With “QVQLVESGGGLVQAGGSLRLSCAASGSTFPSNAMGWYRQAPGKERELVAALSRGGTTNYADSVKGRFTISRDNAKNTVYLQMNCLKPEDTAVYYCAKVYKLYWYKAYRRDYWGQGTQVTVSS”, the “polyreactivity (PSR sort gate)” value is “high polyreactivity”.
Regarding “QVQLVESGGGLVQAGGSLRLSCAASGSTFPSYAMGWYRQAHGKERELVAAINSGGGTNYADSVKGRFTISRDNAKNTVYLQMHSLKPEDTAVYYCDKSRYDYTKTEGGYWGQATQVTVSS”, the “polyreactivity (PSR sort gate)” value is recorded as “low polyreactivity”.
The same measure for “QVQLVESGGGLVQAGGSLRLSCAASGSTFPSYAMGWYRQAPGKERELVASITSSGGSTYYADSVKGRFTISRDNAKNTVYLQMNSLKPEDTAVYYCNARRYYYSWGREGGYWGQGTQVTVSS”: “low polyreactivity”; for “QVQLVESGGGLVQAGGSLRLSCAASGSTFPTYAMGRDRTAPGKEREMVAAIDWSDGSITYYADSVKGRFTISRDNAKNTVYLQMNSLKPEDTAVYYCAKDNSQYGWGYDYWGQGTQVTVSS”: “low polyreactivity”; for “QVQLVESGGGLVQAGGSLRLSCAASGSTFPTYSMGWYRQAPGKERELVAAITSGSGTNTYYADSVKGRFTISRDNAKNTVYLQMNSLKPEDTAVYYCAKSFRKKYGWGQGTQVTVSS”: “high polyreactivity”.
The same measure for “QVQLVESGGGLVQAGGSLRLSCAASGSTFPVNAMGWYRQAPGKERELVAAISSRGSSTYYADSVKGRFTISRDNAKNTVYLQMNSLKPEDTAVYYCAAPQRYPRFYYWGQGTQVTVSS”: “high polyreactivity”; for “QVQLVESGGGLVQAGGSLRLSCAASGSTFPVNAMGWYRQAPGKERELVAAITYRDGDTYYADSVKGRFTISRDNAKNTVYLEMHSLKPEDTAVYYCNADVGRHGKNRHMDYWGQGTQVTVSS”: “low polyreactivity”.
